Laboratory results: patent publication US20260193326A1 (published 2026)
Where a chain is given by its changes, count along the chain named. Like-named read-outs stand apart in the source and are kept apart here.

B1: A4-H3 (VHH)
VHH: VQLQASGGGFVQPGGSLRLSCAASGSIFSINLMGWFRQAPGKERELVAVITPGGNTYYADSVKGRFTISRDNSKNTVYLQMNSLRAEDTATYYCHVDEVRQSSWTTSNLWGQGTQVTVSS
B2: A4-M1 (A4-017 with an N-terminal amino acid sequence MetAlaGln) (VHH)
VHH: QVQLQESGGGLVQPGGSLRLSCAASGSIFSINLMGWYRQAPGKQRELVATITRGGNTNYAGSVKGRFTISRDNAKNTVYLQMNSLRPEDTAVYYCHVDEVRQSSWTTSNLWGQGTQVTVSS
B3: A4-M2 (A4-017 with an N-terminal methionine) (VHH)
VHH: B2 VHH
B4: A4-105 (VHH)
VHH: VQLQESGGGLVQPGGSLRLSCAASGSIFSLNAMGWYRQAPGKQRELVATITSGGSTNYADSVKGRFTISRDNAKNTAYLQMNNLQPEDTAVYYCHVDEVRESIWTTSNLWGQGTQVTVSS
B5: A4-T1 (A4-017 with a C-terminal 6xHis tag) (VHH)
VHH: B4 VHH with L30I, A32L, S52R, S55N, D60G, A77V, N83S, Q85R, E101Q, I103S
B6: A4-L1 (A4-017 with a C-terminal IgA hinge followed by a 6xHis tag) (VHH)
VHH: B4 VHH with L30I, A32L, S52R, S55N, D60G, A77V, N83S, Q85R, E101Q, I103S
B7: A4-T2 (A4-017 with a C-terminal GGGGS linker followed by a 6xHis tag) (VHH)
VHH: B4 VHH with L30I, A32L, S52R, S55N, D60G, A77V, N83S, Q85R, E101Q, I103S
B8: A4-111 (VHH)
VHH: VQLQESGGGLAQPGGSLRLSCAASGSNFSINTMGWYRQRAGKQREFVATITRGGSTNYGDSVKGRFTISRDNAKTTVYLQMNSLRPEDTAVYYCHLDEVRESTWTTSNLWGQGTQVTVSS

Legend:
[1] = target: T1, AAV8 (adeno-associated virus serotype 8); experiment: SPR, AAV on CM5 chip
T1 construct: also called adeno-associated virus serotype 8

[2] = target: T2, AAV9 (adeno-associated virus serotype 9); experiment: SPR, AAV on CM5 chip
T2 construct: also called adeno-associated virus serotype 9

[3] = target: T3, AAV5 (adeno-associated virus serotype 5); experiment: SPR, AAV on CM5 chip
T3 construct: also called adeno-associated virus serotype 5

[4] = target: Adeno-associated virus serotype 8 (AAV8) (AAV8); experiment: SPR, AAV amine-coupled to CM5 chip, nanobody 1-50 nM as analyte
[5] = target: Adeno-associated virus serotype 5 (AAV5) (AAV5); experiment: as above
[6] = target: Adeno-associated virus serotype 9 (AAV9) (AAV9); experiment: as above
[7] = target: T1, AAV8; experiment: SPR, AAV on CM5 chip; remark: listed apart in the source
Procedure: (§1) AAV was amine-coupled to a CM5 sensor chip at a density of 500-800 response units (RU). Nanobodies were injected at seven concentrations (1-100 nM) with a flow rate of 45 μL/min, and chip regeneration was performed using glycine-HCl (pH 1.5). Binding curves at different nanobody concentrations were used to calculate kinetic parameters (Kₐ, Kd, KD) (Table 2 and FIG. 2).

[8] = target: T4, AAV2 (adeno-associated virus serotype 2, UniProt P03135 1-735); experiment: SPR, AAV on CM5 chip;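 note: surface plasmon resonance with AAV amine-coupled to the chip as ligand, nanobodies injected as analyte over a concentration series, rate constants and affinity fitted from binding curves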
T4 construct: also called adeno-associated virus serotype 2
Procedure: as §1

[9] = target: T2, AAV9; experiment: SPR, AAV on CM5 chip; remark: listed apart in the source
Procedure: as §1

[10] = target: T3, AAV5; experiment: SPR, AAV on CM5 chip; remark: listed apart in the source
Procedure: as §1

Row | Binder | Kd [4] | koff [4] | kon [4] | Kd [5] | koff [5] | kon [5] | Kd [6] | koff [6] | kon [6] | other results
1 | B1 |  |  |  |  |  |  |  |  |  | Kd [1]: 9.59 nM; koff [1]: 0.00128 s⁻¹; kon [1]: 134000 M⁻¹ s⁻¹; Kd [2]: 4.32 nM; koff [2]: 0.00073 s⁻¹; kon [2]: 169000 M⁻¹ s⁻¹; Kd [3]: 3.05 nM; koff [3]: 0.00048 s⁻¹; kon [3]: 157000 M⁻¹ s⁻¹
2 | B2 | 196 nM | 0.0014 s⁻¹ | 7150 M⁻¹ s⁻¹ | 324 nM | 0.00189 s⁻¹ | 5830 M⁻¹ s⁻¹ | 0.821 nM | 0.00015 s⁻¹ | 183000 M⁻¹ s⁻¹ | 
3 | B3 | 171 nM | 0.001 s⁻¹ | 5830 M⁻¹ s⁻¹ | 415 nM | 0.002 s⁻¹ | 4820 M⁻¹ s⁻¹ | 0.874 nM | 0.00013 s⁻¹ | 149000 M⁻¹ s⁻¹ | 
4 | B4 |  |  |  |  |  |  |  |  |  | Kd [7]: 21.7 nM; koff [7]: 0.00391 s⁻¹; kon [7]: 180000 M⁻¹ s⁻¹; Kd [8]: 34.2 nM; koff [8]: 0.00543 s⁻¹; kon [8]: 159000 M⁻¹ s⁻¹; Kd [9]: 17 nM; koff [9]: 0.00189 s⁻¹; kon [9]: 111000 M⁻¹ s⁻¹; Kd [10]: 14 nM; koff [10]: 0.00139 s⁻¹; kon [10]: 99600 M⁻¹ s⁻¹
5 | B5 | 202 nM | 0.00148 s⁻¹ | 7310 M⁻¹ s⁻¹ | 268 nM | 0.00193 s⁻¹ | 7200 M⁻¹ s⁻¹ | 0.713 nM | 0.00012 s⁻¹ | 168000 M⁻¹ s⁻¹ | 
6 | B6 | 220 nM | 0.00093 s⁻¹ | 4230 M⁻¹ s⁻¹ | 569 nM | 0.00092 s⁻¹ | 1620 M⁻¹ s⁻¹ | 0.802 nM | 0.00011 s⁻¹ | 137000 M⁻¹ s⁻¹ | 
7 | B7 | 102 nM | 0.00078 s⁻¹ | 7650 M⁻¹ s⁻¹ | 234 nM | 0.00147 s⁻¹ | 6280 M⁻¹ s⁻¹ | 0.513 nM | 0.0001 s⁻¹ | 195000 M⁻¹ s⁻¹ | 
8 | B8 |  |  |  |  |  |  |  |  |  | Kd [7]: 1.88 nM; koff [7]: 0.00014 s⁻¹; kon [7]: 74500 M⁻¹ s⁻¹; Kd [8]: 3.51 nM; koff [8]: 0.0002 s⁻¹; kon [8]: 56900 M⁻¹ s⁻¹; Kd [9]: 2 nM; koff [9]: 0.00025 s⁻¹; kon [9]: 125000 M⁻¹ s⁻¹; Kd [10]: 1.06 nM; koff [10]: 9e-05 s⁻¹; kon [10]: 85300 M⁻¹ s⁻¹
